Measurements taken from paper PMC5919673, “Effector gene birth in plant parasitic nematodes: Neofunctionalization of a housekeeping glutathione synthetase gene” (PLoS Genetics, 2018).
Values belong to the compound of their own block, whether it stands above or below them.

Key:
Gpa-GSS1 = biological target: T1, Gpa-GSS1 (Globodera pallida, UniProt A0A183BS86); test: malachite green phosphate release from ATP; assay type: biochemical; details: glycine, 20 mM MgCl2, 5 mM DTT, 100 mM HEPES pH 7.5, 30 °C
T1 construct: full-length; His6-SUMO tag cleaved by 3C protease (pOPINS3C); E. coli SHuffle; homodimer, about 50 kDa per subunit

St-GSS1 = biological target: T2, St-GSS1 (Solanum tuberosum, UniProt M1CSC4); test: malachite green phosphate release from ATP; assay type: biochemical; details: glycine, 20 mM MgCl2, 5 mM DTT, 100 mM HEPES pH 7.5, 30 °C
T2 construct: gene LOC102589405; His6-SUMO tag cleaved by 3C protease (pOPINS3C); E. coli SHuffle; homodimer, about 50 kDa per subunit
T2 sequence (M1CSC4 1-483): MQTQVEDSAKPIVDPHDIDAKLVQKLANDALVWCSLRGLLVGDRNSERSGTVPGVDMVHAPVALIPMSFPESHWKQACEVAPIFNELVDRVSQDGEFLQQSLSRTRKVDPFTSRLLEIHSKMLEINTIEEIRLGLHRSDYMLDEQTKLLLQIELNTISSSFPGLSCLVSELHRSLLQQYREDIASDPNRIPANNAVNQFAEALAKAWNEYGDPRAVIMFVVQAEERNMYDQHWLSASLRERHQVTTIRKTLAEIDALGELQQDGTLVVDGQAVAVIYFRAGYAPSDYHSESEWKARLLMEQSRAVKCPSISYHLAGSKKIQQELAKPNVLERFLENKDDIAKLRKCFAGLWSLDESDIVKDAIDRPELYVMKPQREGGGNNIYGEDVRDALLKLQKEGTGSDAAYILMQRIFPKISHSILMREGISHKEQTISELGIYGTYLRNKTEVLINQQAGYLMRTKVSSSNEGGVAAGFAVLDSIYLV

[1] = biological target: Globodera pallida Clade 1 glutathione synthetase Gpa-GSS1 (Globodera pallida); test: SEC; S200 analytical gel filtration column; purified proteins migrate between the 150 kDa and 75 kDa protein standards, at a mass consistent with a homodimer (50 kDa per subunit)
[2] = biological target: Globodera pallida Clade 2 glutathione synthetase Gpa-GSS5 (Globodera pallida); test: as above
[3] = biological target: Globodera pallida Clade 3 GS-like effector Gpa-GSS12 (Globodera pallida); test: as above
[4] = biological target: Globodera pallida Clade 3 GS-like effector Gpa-GSS17 (Globodera pallida); test: as above
[5] = biological target: Globodera pallida Clade 3 GS-like effector Gpa-GSS22 (Globodera pallida); test: as above
[6] = biological target: Globodera pallida Clade 3 GS-like effector Gpa-GSS24 (Globodera pallida); test: as above
[7] = biological target: Globodera pallida Clade 3 GS-like effector Gpa-GSS30 (Globodera pallida); test: as above
[8] = biological target: Solanum tuberosum glutathione synthetase St-GSS1 (Solanum tuberosum); test: as above

Compound: N[C@@H](CCC(=O)N[C@@H](CS)C(=O)O)C(=O)O [γ-EC]
Km (Gpa-GSS1): The Km for γ-EC for canonical GS enzymes.
Km (St-GSS1): The Km for γ-EC for canonical GS enzymes.

stoichiometry N [1]: 2
Compound: Globodera pallida Clade 1 glutathione synthetase Gpa-GSS1 (enzyme)

stoichiometry N [2]: 2
Compound: Globodera pallida Clade 2 glutathione synthetase Gpa-GSS5 (enzyme)

Compound: Globodera pallida Clade 3 GS-like effector Gpa-GSS12 (natural protein)
stoichiometry N [3]: 2

Compound: Globodera pallida Clade 3 GS-like effector Gpa-GSS17 (natural protein)
stoichiometry N [4]: 2

Compound: Globodera pallida Clade 3 GS-like effector Gpa-GSS22 (natural protein)
stoichiometry N [5]: 2

Compound: Globodera pallida Clade 3 GS-like effector Gpa-GSS24 (natural protein)
stoichiometry N [6]: 2

Compound: Globodera pallida Clade 3 GS-like effector Gpa-GSS30 (natural protein)
stoichiometry N [7]: 2

stoichiometry N [8]: 2
Compound: Solanum tuberosum glutathione synthetase St-GSS1 (enzyme)
